The text below walks through data of article PMC10244618.

“And” between values parts separate entries of the source, which are not always exact repeats. Equal entries are not always repeated.

B1: NF2 (merlin) isoform 7, human, full length (507 aa, lacks exons 2-3 = isoform-1 residues 39-121; exon-16 C-terminus), P35240-4 (parent)
chain: MAGAIASRMSFSSLKRKQPKTFTVRIVTMDAEMEFNCEVKKQILDEKIYCPPEASVLLASYAVQAKYGDYDPSVHKRGFLAQEELLPKRVINLYQMTPEMWEERITAWYAEHRGRARDEAEMEYLKIAQDLEMYGVNYFAIRNKKGTELLLGVDALGLHIYDPENRLTPKISFPWNEIRNISYSDKEFTIKPLDKKIDVFKFNSSKLRVNKLILQLCIGNHDLFMRRRKADSLEVQQMKAQAREEKARKQMERQRLAREKQMREEAERTRDELERRLLQMKEEATMANEALMRSEETADLLAEKAQITEEEAKLLAQKAAEAEQEMQRIKATAIRTEEEKRLMEQKVLEAEVLALKMAEESERRAKEADQLKQDLQEAREAERRAKQKLLEIATKPTYPPMNPIPAPLPPDIPSFNLIGDSLSFDFKDTDMKRLSMEIEKEKVEYMEKSKHLQEQLNELKTEIEALKLKERETALDILHNENSDRGGSSKHNTIKKPQAQGRRPICI

In this test the parent is B1. Nature of the test: reverse yeast two-hybrid deep mutational scan (rY2H-seq): NF2 isoform 7 mutant library as bait mated with wild-type prey strains; selection on medium lacking adenine for non-interacting pairs; NextSeq paired-end sequencing; enrichment vs …. To be noted: yeast diploids after mating (RBait_S3 x RPrey_S3), 30 °C, selection for reporter genes on NB agar, HIGHER = WEAKER BINDING (the opposite of display enrichments): higher = stronger loss of interaction: reverse Y2H selects yeast in which bait and prey do NOT interact (growth without adenine), so a …, hits-only table, scale: rY2H score, numbering: uniprot, sequence starts at 1.

Where [1] appears, read: with EMILIN1 (elastin microfibril interfacer 1), Q9Y6C2, human ABL2 co-expressed as the kinase-dead K35M mutant ….
[2] abbreviates: with NF2 C-terminal domain (wild type; homomeric NF2-NF2 interaction), P35240, human ABL2 co-expressed as the kinase-dead K35M mutant …, partner unresolved.
[3] abbreviates: with EMILIN1 (elastin microfibril interfacer 1), Q9Y6C2, human tyrosine kinase ABL2 co-expressed as the active kinase ….
[4] abbreviates: with KDM1A (lysine-specific histone demethylase 1A; the table's label AOF2 is a gene synonym of KDM1A), O60341, human ABL2 co-expressed as the kinase-dead K35M mutant ….
Where [5] appears, read: with KDM1A (lysine-specific histone demethylase 1A; the table's label AOF2 is a gene synonym of KDM1A), O60341, human tyrosine kinase ABL2 co-expressed as the active kinase ….
Setting [6] is: with PIK3R3 (phosphatidylinositol 3-kinase regulatory subunit gamma), Q92569, human tyrosine kinase ABL2 co-expressed as the active kinase ….

Regarding A322E, the enrichment by setting is: under setting [1], 3.28; under setting [2], 2.97.
E338A: the enrichment runs as follows: under setting [1], 3.66; under setting [3], 4.28; under setting [4], 2.42; under setting [5], 6.92; under setting [6], 4.09.
On to E338R, for which, under setting [1], the enrichment is 2.37.
For the variant E338L, the enrichment stood at 2.57 under setting [1], 2.53 under setting [3], 5.57 under setting [4] and 3.03 under setting [2].
Consider E338K, for which the enrichment under setting [1] is 2.51.
As for K281A, under setting [1], the enrichment came to 6.85.
Take Q324A: the enrichment worked out at 1.9 under setting [1], 3.69 under setting [3] and 2.45 under setting [4].
Take A302E: the enrichment under setting [1] stood at 4.06; the enrichment under setting [4] is 2.49 and 5.
In the case of E272A, the enrichment under setting [1] came to 3.71 and the enrichment under setting [4] was 2.65.
Turning to E272K, the enrichment is, setting by setting: under setting [1], 1.57; under setting [4], 3.01 and 2.96; under setting [5], 1.77; under setting [2], 3.42 and 3.26; under setting [6], 2.55 and 1.61 and 4.74.
On to A298K, for which the enrichment under setting [1] was 1.79.
As for L300E, the enrichment reads like this: under setting [1], 5.44; under setting [3], 5.18; under setting [2], 4.73 and 3.13.
For the variant E339K, the enrichment is 4.07 and 1.56 under setting [1]; 3.86 under setting [3]; 2.92 under setting [4]; 2.13 under setting [5]; 1.45 under setting [2]; 1.62 under setting [6].
On to E339T, for which the enrichment is, setting by setting: under setting [1], 3.93; under setting [3], 5.99; under setting [4], 2.02; under setting [2], 2.08.
With E339L, the enrichment stood at 1.74 under setting [1] and 1.65 under setting [2].
Take E339A: the enrichment under setting [1] amounted to 2.51 and the enrichment under setting [3] was determined as 1.94.
As for T332L, the enrichment by setting is: under setting [1], 1.4; under setting [6], 2.31.
As for T332D, the enrichment runs as follows: under setting [1], 4.98 and 1.87; under setting [3], 2.07.
For M343K, the enrichment is, setting by setting: under setting [1], 3.5; under setting [3], 1.81; under setting [5], 3.6.
M343E: the enrichment runs as follows: under setting [1], 2.88 and 3.18; under setting [3], 3.19; under setting [4], 3.76; under setting [5], 2.07 and 4.72; under setting [6], 1.45.
Turning to M343A, the enrichment was 2.55 and 1.66 under setting [1]; 2.55 and 2.14 under setting [3].
As for Q279K, the enrichment was 2.01 under setting [1]; 2.32 and 4.35 under setting [3]; 6.01 under setting [4]; 7.05 under setting [6].
Regarding E274K, the enrichment under setting [1] was 1.67.
Regarding E337K, the enrichment was 2.71 under setting [1]; 4.3 and 3.24 under setting [3]; 2.29 under setting [4].
On to E337T, for which, under setting [1], the enrichment stood at 5.26.
For the variant I329L, the enrichment under setting [1] worked out at 3; the enrichment under setting [3] is 2.26 and 2.09; the enrichment under setting [4] was found to be 4.07; the enrichment under setting [5] was determined as 3.51; the enrichment under setting [2] is 1.91 and 3.47.
Turning to I329E, the enrichment is 2.28 under setting [1]; 1.79 and 3.15 under setting [3]; 3.19 and 2.75 under setting [5]; 2.93 under setting [2].
As to K340E, the enrichment runs as follows: under setting [1], 2.44 and 2.85; under setting [3], 4.17 and 3.5; under setting [4], 1.93 and 2.13; under setting [5], 1.71 and 2.96; under setting [2], 2.5 and 3.18; under setting [6], 5.
With K340A, the enrichment is, setting by setting: under setting [1], 2.47; under setting [3], 2.67; under setting [4], 3.4 and 3.43; under setting [5], 3.04 and 2.28; under setting [6], 1.46.
Consider T308D, for which the enrichment runs as follows: under setting [1], 4.89; under setting [3], 2.02; under setting [4], 2.33; under setting [2], 2.47.
Turning to T308E, the enrichment was 2.33 under setting [1] and 3.16 under setting [2].
Consider T308K, for which the enrichment under setting [1] is 2.66 and 1.9; the enrichment under setting [3] is 2.2 and 3.37; the enrichment under setting [4] turned out to be 2.96; the enrichment under setting [5] amounted to 2.24; the enrichment under setting [2] worked out at 5.45.
For A319K, the enrichment was determined as 3.24 under setting [1], 1.77 under setting [3] and 7.16 under setting [4].
A319E: the enrichment under setting [1] was 2.5; the enrichment under setting [3] was 5.2 and 4.57; the enrichment under setting [5] was 5.63; the enrichment under setting [2] is 1.39 and 4.04; the enrichment under setting [6] amounted to 4.37.
Regarding E303V, under setting [1], the enrichment is 5.6 and 16.3.
Take L315E: the enrichment reads like this: under setting [1], 3.8; under setting [4], 2.62 and 6.59.
Take E267A: the enrichment under setting [1] was 2.15.
On the same count and under the same terms, as for D299A, the figure is 1.54; as for L301K, 4.43.
In the case of L301E, the enrichment is 7.29 under setting [1], 1.77 under setting [3], 4.8 under setting [4] and 3.42 under setting [2].
As for I334L, the enrichment reads like this: under setting [1], 1.59 and 1.85; under setting [5], 3.11; under setting [6], 1.39.
With I334T, the enrichment under setting [1] is 1.75; the enrichment under setting [3] was 1.68 and 2.52; the enrichment under setting [4] was 2.69 and 1.45.
With I334K, the enrichment is 1.69 under setting [1], 2.46 under setting [4], 3.87 under setting [5] and 2.88 under setting [6].
Regarding I334E, the enrichment runs as follows: under setting [1], 2.52; under setting [4], 4.73 and 1.72; under setting [6], 2.25.
As to A312G, the enrichment under setting [1] is 1.62.
